assay: soluble on expression in E. coli; label from the status in PepcDB or PDB records

Sequence	soluble on expression in E. coli
SAAATEHNRPSSGDRNLERRCSPNLSREVLYEIFRSLHTLVGQLDLRDDVVKITIDWNKLQSLSAFQPALLFSALEQHILYLQPFLAKLQSPIKEENTTAVEEIGRTEMGNKNEVNDKFSIGDLQEEEKHKESDLRDVKKTQIHFDPEVVQIKAGKAEIDRRISAFIERKQAEINENNVREFCNVIDCNQENSCARTDAIFTPYPGFKSHVKVSRVVYTYGPQTRPEGIPGSGHKPNSMLRDCGNQAVEERLQNIEAHLRLQTGGPVPRDIYQRIKKLEDKILELEGISPEYFQSVSFSGKRRKVQPPQQNYSLAELDEKISALKQALLRKSREAESMATHHLP	not soluble
SADAFSLQRVLETFRSSLSENKEVYIKYYIAGWQELVSFMNSLGNVFSFISKDVVSKIQILENFLSGENGSNYVTIQSMVKYELENDLVDLTKRGSHPESGCRTLLRLHRALRWLELFLERLRTSTEDSKTSVMCSDAYNESLANHHPWLIRKAVGVAFCALPGRETFFDVMNAGDHTQVVALLGESLPLIAEVYQITEDLYAKNNLLELP	soluble
SAEDELVEIVPNMNMEQLNFISGDFGRFIPQIPTKVPLWLAVALKRRGKCTFRPPGWMSVDNLTQILEAERESQSTFQALPFSYVEIARLLFDHARDDIPDMYMVRSLVEDIRDVRLHKLETNLGSFQGTSAVKISNVSAMEVNIVRPFVIRALEAFYKHDKPEADVDRDTRSSRQQRETNNEPRRPLRQR	soluble
SAFQKAASLLGAPIGHDFCVISLSDLMTPWDRIEKRIHAAATADFVTAVYNPKSEGRYWQLYRLKEIFLKERDPETPVGFVRQAGRKEETVTITTLQEFDPEQVDMFTVVLIGNSQSYHQEG	soluble
SALTCEVCVLTVPVVSNSTPGSLYVVATPIGNLDDMSVRALKVLREVALIAAEDTRHSARLMQHFGISTPLAACHEHNERDEGSRFITRLLAGDDVALISDAGTPLISDPGYHLVRQARAVGVPVVP	not soluble
SANQNFNNSETLGHQGSHVVTLQLRIDGMHCKSCVLNIEENIGQLLGVQSIQVSLENKTAQVKYDPSCTSPVALQRAIEALPPGNFKVSLPDGAEGSGTDHRSSSSHSPGSPPRNQVQGTCSTTLIAIAGMTCASCVHSIEGMISQLEGVQQISVSLAEGTATVLYNPAVISPEELRAAIEDMGFEASVVSESCSTNPLGNH	soluble
SATLKVSDSVPAPSDDAEQLRTAFEGWGTNEDLIISILAHRSAEQRKVIRQAYHETYGEDLLKTLDKELSNDFERAILLWTLEPGERDALLANEATKRWTSSNQVLMEVACTRTSTQLLHARQAYHARYKKSLEEDVAHHTTGDFRKLLVSLVTSYRYEGDEVNMTLAKQEAKLVHEKIKDKHYNDEDVIRILSTRSKAQINATFNRYQDDHGEEILKSLEEGDDDDKFLALLRSTIQCLTRPELYFVDVLRSAINKTGTDEGALTRIVTTRAEIDLKVIGEEYQRRNSIPLEKAITKDTRGDYEKMLVALLGEDDA	soluble
SATPLDNCLRPFPDPMVKVTAETKKISEVSSYVSANNKKNSFWGSGLLYPVALLRCQDCWAGHQTHVLSKEFTSYFSSGAGREAQHQPSAVLGSLIWLRRVYLLRAMVVHGGSQPCQRWLVIRMEVGGHPSFPGHAWLTFHLN	soluble
SDLCQLFVEQLFGFQDPASLHVLINEIPCARKNLISLRRFSLLIAEPQWFTGSIYDNLVLNHRNVPNKIIIEQLKNVGLADKIIQLPEGLRTILYEWQDVFTLVELTKLMLVRALLLQPELIVIDRAFDILNHQEVNEMMELVLSLKNTLLAIVSQRSDFNYLNNRLVISS	not soluble
SDLMTPWPIIEKRIVAAASADFVTAIYNPKSEGRYWQLYRFVEIFMQYRSADTPVGLVRQAGREEEQVTVTTLGEFDPEVVDMFTVVLVGNSQSYCYEGHFITPRGYYPEEEIEAKGI	not soluble
SEAVRPDSCESGPAAPRAEERPAPEARVHFRVTRFIMEAGVKLGMQSIPIATACTIYHKFFCEINLDAYDLYLVAMSSIYLAGKVEEQHLRTRDIINVSHRYFNPGSEPLELDSRFWELRDSIVQCELLMLRVLRFQVSFQHPHKYLLHYLISLKNWLNRYSWQRTPISVTAWALLRDSYHGGLCLRFQAQHLAVAVLYLALQVYGVEVPAEGEAEKPWWQVFSDDLTKPIIDNIVSDLIQIYTMDTEIP	soluble
SEAWEYFHLAPARAGHHPNQYATCRLCGRQVSRGPGVNVGTTALWKHLKSMHREELEKSGHGQ	soluble
SEEITDGVNNMNLATDSQKKNRIQVSNTKKPLFFYVNLAKRYMQQYNDVELSALGMAIATVVTVTEILKNNGFAVEKKIMTSIVDIKDDARGRPVQKAKIEITLVKSEKFDELMAAANEEKEDAETQVQN	soluble
SEKLAASTEPQGPRPVLGRESVQVPDDQDFRSFRSECEAEVGWNLTYSRAGVSVWVQAVEMDRTLHKIKCRMECCDVPAETLYDVLHDIEYRKKWDSNVIETFDIARLTVNADVGYYSWRCPKPLKNRDVITLRSWLPMGADYIIMNYSVKHPKYPPRKDLVRAVSIQTGYLIQSTGPKSCVITYLAQVDPKGSLPKWVVNKSSQFLAPKAMKKMYKACLKYPEWKQKHLPHFKPWLHPEQSPLPSLALSELSVQHADSLENIDESAVAESREERMGGAGGEGSDDDTSLT	soluble
SELFTLGACRQVGKSCFVLKTSEGLVMLDCGLHPSYQDDRRYPNFSLAFSYGPLKAVFITHCHADHVGALPILTERWGYDGPIYMSEPTRKLSYYILEECVGSWGGDDEWTDSSRSEWSYTQREVESCLTKCIVGWLDMCWVLTCLASS	soluble
SESSGGPTSSLAGTSRNTHVEDDDVVFIESVQPPICAPAIPNERNFVFASSKHENPPGTDSTISPSWRDLTSQKGNLCETIVIDDEGDTDTNGGEEKNPTDFIEWGPNGNKSSTKNVDFPIASLSRSKTKTAVGPFNPGRIDVTDAFQNGRFAVHHNPDSWISQSASFPRNQKQQGVDSLSPVASLPKQIFQPSNQQPTKPVKVTCANCKKPLQKGQTAYQRKGSAHLFCSTTCLSSFSHKRTRKTRNVMCKK	soluble
SETQEGVSKQSIRERIWDYMESHDIADFPRPVHHRIPNFKGAAQAAGHLPHLQAFHVARTIKVNPDAPQRNARFLVLESKKTLLVPTPRLRTGLFNKITPPPGATKDILRKCATSQGVRNFSVPVGLDSSVLVDLVVVGSVAVSEKGKLETGCLDVPEGYPGHSPLACVHAESLTSAPVPLTLQAFCCSVSPHGRLSVIGMGGIESLSHLNQHSVERPLPGLCGGPLMVVVIPH	not soluble
SFDNSLSRELSRKQNENQMFVYSFEASASMLSSDTEYIQKNDIEKIIDSVKRSMGESQIGITIVNQKEKAIYTDSKIGKNIKIKDLKDNNFGYLIFKNNGSYYLETMSKMTIESGTYYISIVSSINEVYNDINEMMKN	not soluble
SFHGIPASGVMGGAPANKPELYEEVKLYKNAREREKYDNMAELFAVVKTLQALEKAYIKDCVTPNEYTGACSRLLVQYKAAFKQVQGSDVGSIDDFCRKYRLDCPLAMERIKEDRPITIKDDKGNLNRCIADIVSLFITVMDKLRLEIRAMDEIQPDLRELMETMNRMSNMPPDSEAKDKVSLWLTTLSSMSASDELDDSQVRQMLFDLESAYNAFNRFLHSS	soluble
SFKKFDEKENVSNCIQLKTSVIKGIKNQLLEQFPGIEPWLNQIMPKKDPVKIVRCHEHIEILTVNGELLFFRQREGPFYPTLRLLHKYPFILPHQQVDKGAIKFVLSGANIMCPGLTSPGAKLYPAAVDTIVAIMAEGKQHALCVGVMKMSAEDIEKVNKGIGIENIHYLNDGLWHMKTYK	soluble
SGELGEHRASLLSNPIPEVKTLGELKQGQNNGNLDLESEPFGSHWLQGSKATTGRTSEEPEEEIPPEEMAGEELPETSNLDGPLQQDLEVEVVEMSHLSITERTPSVSTAKGRKKRSRRLLELAKPKTNWQCLRDRPSVYWTERFIEDTTLTITVPVVSQRMEELSRPKRFYQEYYNNNRTTPIWSIPRSTLEYQASNRLKQLATPKVRNNIWSINMSEVSQVSRAAQMAVPTPRTLRLAKPRPPATLLEEWDPMPKPKPYVSDYNRLLQLATPKALSEKCVPDRSPQWEVLDVTKNAVASSRIISLAQPKIRKDLNEGYNPYYISPASLVAQASPRIYELATPKYITKKV	soluble
SGGRPIQFFRRLAIWKYMKDYFPVSLVKTAELDPSRNYIAGFHPHGVLAAGAFLNLCTESTGFTSLFPGIRSYLMMLTVWFRAPFFRDYIMSGGLVSSEKVSADHILSRKGGGNLLAIIVGGAQEALDARPGAYRLLLKNRKGFIRLALMHGAALVPIFSFGENNLFNQVENTPGTWLRWIQNRLQKIMGISLPLFHGRGVFQYSFGLMPFRQPITTIVGKPIEVQMTPQPSREEVDRLHQRYIKELCKLFEEHKLKFNVPEDQHLEFC	soluble
SGKQPVKLKAVVYALSPFQQKIMTGLWKDLPEKIHHKVSENWISATLLVTPVVGTYWYAQYFKEQEKLEHRF	soluble
SGQKVTGGIKTVDMRDPTYRPLKQELQGLDYCKPTRLDLLLDMPPVSYDVQLLHSWNNNDRSLNVFVKEDDKLIFHRHPVAQSTDAIRGKVGYTRGLHVWQITWAMRQRGTHAVVGVATADAPLHSVGYTTLVGNNHESWGWDLGRNRLYHDGKNQPSKTYPAFLEPDETFIVPDSFLVALDMDDGTLSFIVDGQYMGVAFRGLKGKKLYPVVSAVWGHCEIRMRYLNGLDPEPLPLMDLCRRSVRLALGRERLGEIHTLPLPASLKAYLLYQ	soluble
SGRKIGSIVMNANPFTLGHQYLIEQACEQCDWVHLFVVKAENKDFSYADRMAMIKAGSKHLLNLTIHSGSDYIISRATFPSYFIKDQQVVNQSHTALDLSIFRHSIAPALGITHRFVGSEPICTVTRHYNQAMRRWLEEAHDASAPIQVVEIERSQQASQPISASRVRYLLKQFGFAAIADLVPKTTYSYLCQHYAEH	not soluble
SGRPIEDVRDRQRLADATATVHETRLALHHGRGNIESDFRLSNGRSSTCSYLSYSFLSYWPGKHDINLMAGCALAVSAGNCDQNAAINTRRHAARMEGGGQITNVCDQACAHMYALYQPPGSAEAQDSAVVLDSWSDGPAVLLRDSRWAGTYHRTSTYPIERFDKPGAIDALARTRALQAEIEDPQTEFHAHLRGVESVVRTPPVPRKIYASTP	not soluble
SGTQALLVEERARLERLLGARLEAAADQALARLVEANPQPVHLICDLTHRLLACSPARAAQFGVPLGELLDRSLWPYCSEEILRQEATLEELGWRELLAPPALEFASGANASAIVPIRRSRCRWTRMTLSDGRAVRLVETL	not soluble
SHMEIVPDTSVVIDGRVSDQVKADADPDTDVDGMGFAGATVVVPEAVVGELEAQANDGRETGWEGLEELQTLVDLAEEGTIDVEYVGRRPDAIEKREAGEGQIDALIRDIAGDRDATLVTSDDVQAEVARAKGLAVEFVDPVKRTVDRLQIENFFDEG	not soluble
SHMTDDKKKGKFIVFEGLDRSGKSTQSKLLVEYLKNNNVEVKHLYFPNRETGIGQIISKYLKMENSMSNETIHLLFSANRWEHMNEIKSLLLKGIWVVCDRYAYSGVAYSSGALNLNKTWCMNPDQGLIKPDVVFYLNVPPNYAQNRSDYGEEIYEKVETQKKIYETYKHFAHEDYWINIDATRKIEDIHNDIVKEVTKIKVEPEEFNFLWS	soluble

Source: the DeepSol protein solubility set
